Measured values from IntAct's records for PubMed 19258017.

B1: Cellulose synthase A catalytic subunit 7 [UDP-forming] (Arabidopsis thaliana (Mouse-ear cress)), Q9SWW6 (parent)
chain: MEASAGLVAGSHNRNELVVIHNHEEPKPLKNLDGQFCEICGDQIGLTVEGDLFVACNECGFPACRPCYEYERREGTQNCPQCKTRYKRLRGSPRVEGDEDEEDIDDIEYEFNIEHEQDKHKHSAEAMLYGKMSYGRGPEDDENGRFPPVIAGGHSGEFPVGGGYGNGEHGLHKRVHPYPSSEAGSEGGWRERMDDWKLQHGNLGPEPDDDPEMGLIDEARQPLSRKVPIASSKINPYRMVIVARLVILAVFLRYRLLNPVHDALGLWLTSVICEIWFAVSWILDQFPKWFPIERETYLDRLSLRYEREGEPNMLAPVDVFVSTVDPLKEPPLVTSNTVLSILAMDYPVEKISCYVSDDGASMLTFESLSETAEFARKWVPFCKKFSIEPRAPEMYFTLKVDYLQDKVHPTFVKERRAMKREYEEFKVRINAQVAKASKVPLEGWIMQDGTPWPGNNTKDHPGMIQVFLGHSGGFDVEGHELPRLVYVSREKRPGFQHHKKAGAMNALVRVAGVLTNAPFMLNLDCDHYVNNSKAVREAMCFLMDPQIGKKVCYVQFPQRFDGIDTNDRYANRNTVFFDINMKGLDGIQGPVYVGTGCVFKRQALYGYEPPKGPKRPKMISCGCCPCFGRRRKNKKFSKNDMNGDVAALGGAEGDKEHLMSEMNFEKTFGQSSIFVTSTLMEEGGVPPSSSPAVLLKEAIHVISCGYEDKTEWGTELGWIYGSITEDILTGFKMHCRGWRSIYCMPKRPAFKGSAPINLSDRLNQVLRWALGSVEIFFSRHSPLWYGYKGGKLKWLERFAYANTTIYPFTSIPLLAYCILPAICLLTDKFIMPPISTFASLFFISLFMSIIVTGILELRWSGVSIEEWWRNEQFWVIGGISAHLFAVVQGLLKILAGIDTNFTVTSKATDDDDFGELYAFKWTTLLIPPTTVLIINIVGVVAGISDAINNGYQSWGPLFGKLFFSFWVIVHLYPFLKGLMGRQNRTPTIVVIWSVLLASIFSLLWVRIDPFVLKTKGPDTSKCGINC
partner: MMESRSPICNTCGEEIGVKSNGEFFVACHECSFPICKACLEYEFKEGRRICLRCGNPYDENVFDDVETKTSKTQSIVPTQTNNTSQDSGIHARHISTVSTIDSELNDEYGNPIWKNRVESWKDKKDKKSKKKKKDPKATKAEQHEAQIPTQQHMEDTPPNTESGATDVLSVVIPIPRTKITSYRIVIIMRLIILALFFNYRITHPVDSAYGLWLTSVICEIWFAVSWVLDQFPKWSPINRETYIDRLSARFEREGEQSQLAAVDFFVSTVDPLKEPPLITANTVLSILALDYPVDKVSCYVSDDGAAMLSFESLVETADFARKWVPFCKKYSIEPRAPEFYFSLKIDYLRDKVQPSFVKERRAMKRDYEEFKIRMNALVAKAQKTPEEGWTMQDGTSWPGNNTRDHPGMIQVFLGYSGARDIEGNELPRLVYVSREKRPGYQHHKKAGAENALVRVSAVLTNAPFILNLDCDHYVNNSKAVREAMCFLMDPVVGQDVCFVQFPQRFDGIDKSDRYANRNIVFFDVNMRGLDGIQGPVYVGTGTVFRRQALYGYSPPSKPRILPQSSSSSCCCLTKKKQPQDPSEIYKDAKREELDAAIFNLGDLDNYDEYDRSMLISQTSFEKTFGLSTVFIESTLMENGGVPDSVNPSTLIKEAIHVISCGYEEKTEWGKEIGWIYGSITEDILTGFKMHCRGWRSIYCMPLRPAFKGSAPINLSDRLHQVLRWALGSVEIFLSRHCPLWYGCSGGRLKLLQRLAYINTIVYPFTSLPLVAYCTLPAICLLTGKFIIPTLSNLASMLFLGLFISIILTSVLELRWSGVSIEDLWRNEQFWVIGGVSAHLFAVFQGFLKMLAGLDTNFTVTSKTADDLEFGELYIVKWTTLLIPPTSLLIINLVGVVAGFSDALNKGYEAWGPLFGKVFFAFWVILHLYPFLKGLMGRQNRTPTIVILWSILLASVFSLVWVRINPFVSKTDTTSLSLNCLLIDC
B2: Cellulose synthase A catalytic subunit 7 [UDP-forming] (Arabidopsis thaliana (Mouse-ear cress)), Q9SWW6 (parent)
chain: B1 chain
partner: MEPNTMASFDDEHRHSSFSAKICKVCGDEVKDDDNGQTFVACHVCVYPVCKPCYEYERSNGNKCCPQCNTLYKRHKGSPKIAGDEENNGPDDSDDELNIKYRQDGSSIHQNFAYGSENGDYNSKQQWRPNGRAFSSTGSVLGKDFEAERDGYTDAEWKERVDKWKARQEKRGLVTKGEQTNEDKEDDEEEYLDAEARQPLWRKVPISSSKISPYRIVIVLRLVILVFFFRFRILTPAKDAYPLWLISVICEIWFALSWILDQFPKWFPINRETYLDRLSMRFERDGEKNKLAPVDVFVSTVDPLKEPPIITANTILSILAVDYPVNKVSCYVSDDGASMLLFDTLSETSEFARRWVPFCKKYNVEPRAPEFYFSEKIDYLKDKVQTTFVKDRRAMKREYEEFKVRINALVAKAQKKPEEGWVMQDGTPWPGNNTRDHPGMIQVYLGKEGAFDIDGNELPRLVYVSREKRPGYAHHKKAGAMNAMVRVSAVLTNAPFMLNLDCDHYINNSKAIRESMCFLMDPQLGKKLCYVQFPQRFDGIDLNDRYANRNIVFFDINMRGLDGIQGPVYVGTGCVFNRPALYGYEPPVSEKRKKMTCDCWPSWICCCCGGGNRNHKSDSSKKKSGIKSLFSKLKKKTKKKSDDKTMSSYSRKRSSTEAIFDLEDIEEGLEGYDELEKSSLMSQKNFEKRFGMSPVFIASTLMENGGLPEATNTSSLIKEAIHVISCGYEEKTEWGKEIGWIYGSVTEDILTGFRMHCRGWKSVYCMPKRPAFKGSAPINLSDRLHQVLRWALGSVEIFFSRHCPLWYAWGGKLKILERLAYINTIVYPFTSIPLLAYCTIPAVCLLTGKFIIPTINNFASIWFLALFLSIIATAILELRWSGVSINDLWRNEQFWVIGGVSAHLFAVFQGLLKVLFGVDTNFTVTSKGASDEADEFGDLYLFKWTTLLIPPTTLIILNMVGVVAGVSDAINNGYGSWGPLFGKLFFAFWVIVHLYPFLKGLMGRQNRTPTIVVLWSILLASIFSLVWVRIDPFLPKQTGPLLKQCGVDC

Variants of: B1
Conditions: with cesa8_arath CESA8, Q8LPK5

effect of a mutation on the interaction | Variant
decreasing interaction | C64A

Variants of: B1
Conditions: with cesa8_arath CESA8, Q8LPK5
Remark: another data set of the same source

effect of a mutation on the interaction | Variant
decreasing interaction | C37A

Variants of: B1
Conditions: with cesa8_arath CESA8, Q8LPK5
Remark: another data set of the same source

effect of a mutation on the interaction | Variant
decreasing interaction | C56A

Variants of: B1
Conditions: with cesa8_arath CESA8, Q8LPK5
Remark: another data set of the same source

effect of a mutation on the interaction | Variant
decreasing interaction | C79A

Variants of: B2
Conditions: with cesa4_arath CESA4, Q84JA6

effect of a mutation on the interaction | Variant
decreasing interaction | C79A

Variants of: B2
Conditions: with cesa4_arath CESA4, Q84JA6
Remark: another data set of the same source

effect of a mutation on the interaction | Variant
decreasing interaction | C64A

Variants of: B2
Conditions: with cesa4_arath CESA4, Q84JA6
Remark: another data set of the same source

effect of a mutation on the interaction | Variant
decreasing interaction | C37A
